Measured values taken from patent US20140303356A1.
pKd: −log10 of the molar value.

These substances were tested against CD20 on Daudi and Raji cells (UniProt P11836) (assay: not given).

Point of comparison: “bispecific antibody generated by 2-MEA-induced Fab-arm exchange between IgG1-2F8-F405L and IgG1-7D8-K409R (from UniProt P01857 1-330)”, EC50 (read off the curve) 2 µg/mL. Against it:
- IgG1-7D8 (from UniProt P01857 1-330) (antibody) — 4-fold lower, 0.5 µg/mL
- IgG1-7D8-K409R (from UniProt P01857 1-330) (antibody) — 5-fold lower, 0.4 µg/mL

Target: CD20 on Daudi and Raji cells (UniProt P11836)
Experiment: not given
Remark: another data set of the same source

For “IgG1-7D8 (from UniProt P01857 1-330) (antibody)”, the EC50 (read off the curve) was 1 µg/mL.

The substances below were run against IgG1-7D8-K409A (human) [IgG part: P01857] (assay: cell-based or functional assay).

Point of comparison: IgG1-2F8-L368R (antibody), Bispecific binding (% relative to positive control) 55%. Against it:
- IgG1-2F8-D399F (antibody) — lower, 13%
- IgG1-2F8-D399H (antibody) — lower, 12%
- IgG1-2F8-D399K (antibody) — lower, 40%
- IgG1-2F8-D399Q (antibody) — lower, 0%
- IgG1-2F8-D399R (antibody) — lower, 47%
- IgG1-2F8-F405I (antibody) — lower, 32%
- IgG1-2F8-F405K (antibody) — lower, 29%
- IgG1-2F8-F405S (antibody) — lower, 34%
- IgG1-2F8-F405T (antibody) — lower, 35%
- IgG1-2F8-F405V (antibody) — lower, 36%
- IgG1-2F8-F405W (antibody) — lower, 17%
- IgG1-2F8-L368A (antibody) — lower, 33%
- IgG1-2F8-L368D (antibody) — lower, 49%
- IgG1-2F8-L368E (antibody) — lower, 32%
- IgG1-2F8-L368G (antibody) — lower, 46%
- IgG1-2F8-L368H (antibody) — lower, 26%
- IgG1-2F8-L368N (antibody) — lower, 47%
- IgG1-2F8-L368S (antibody) — lower, 39%
- IgG1-2F8-L368T (antibody) — lower, 42%
- IgG1-2F8-L368V (antibody) — lower, 42%
- IgG1-2F8-L368W (antibody) — higher, 56%
- IgG1-2F8-Y407L (antibody) — lower, 44%
- IgG1-2F8-Y407Q (antibody) — lower, 4%
- IgG1-2F8-Y407W (antibody) — lower, 48%

For IgG1-2F8-F405S (antibody), the Fab-arm exchange compared to the positive control, 20° C., 200 min was 90%.

With IgG1-2F8-F405S (antibody) the Fab-arm exchange efficiency compared to the positive control, 15° C., 200 min was 65%.

These substances were tested against IgG1-7D8-K409G (human) [IgG part: P01857] (assay: cell-based or functional assay).

Point of comparison: IgG1-2F8-D399H (antibody), Bispecific binding (% relative to positive control) 14%. Against it:
- IgG1-2F8-D399F (antibody) — higher, 15%
- IgG1-2F8-D399K (antibody) — higher, 43%
- IgG1-2F8-D399Q (antibody) — lower, 0%
- IgG1-2F8-D399R (antibody) — higher, 45%
- IgG1-2F8-F405I (antibody) — higher, 49%
- IgG1-2F8-F405K (antibody) — higher, 48%
- IgG1-2F8-F405S (antibody) — higher, 51%
- IgG1-2F8-F405T (antibody) — higher, 47%
- IgG1-2F8-F405V (antibody) — higher, 46%
- IgG1-2F8-F405W (antibody) — higher, 20%
- IgG1-2F8-L368A (antibody) — higher, 33%
- IgG1-2F8-L368D (antibody) — higher, 50%
- IgG1-2F8-L368E (antibody) — higher, 38%
- IgG1-2F8-L368G (antibody) — higher, 53%
- IgG1-2F8-L368H (antibody) — higher, 25%
- IgG1-2F8-L368N (antibody) — higher, 52%
- IgG1-2F8-L368R (antibody) — higher, 64%
- IgG1-2F8-L368S (antibody) — higher, 45%
- IgG1-2F8-L368T (antibody) — higher, 51%
- IgG1-2F8-L368V (antibody) — higher, 49%
- IgG1-2F8-L368W (antibody) — higher, 56%
- IgG1-2F8-Y407L (antibody) — higher, 41%
- IgG1-2F8-Y407Q (antibody) — lower, 9%
- IgG1-2F8-Y407W (antibody) — higher, 53%

IgG1-2F8-D399R (antibody) showed a Fab-arm exchange compared to the positive control, 20° C., 200 min of 85%.

IgG1-2F8-D399R (antibody) gave a Fab-arm exchange efficiency compared to the positive control, 15° C., 200 min of 85%.

These substances were tested against IgG1-7D8-K409H (human) [IgG part: P01857] (assay: cell-based or functional assay).

Point of comparison: IgG1-2F8-F405T (antibody), Bispecific binding (% relative to positive control) 46%. Against it:
- IgG1-2F8-D399F (antibody) — lower, 15%
- IgG1-2F8-D399H (antibody) — lower, 19%
- IgG1-2F8-D399K (antibody) — the same, 46%
- IgG1-2F8-D399Q (antibody) — lower, 0%
- IgG1-2F8-D399R (antibody) — higher, 52%
- IgG1-2F8-F405I (antibody) — higher, 60%
- IgG1-2F8-F405K (antibody) — lower, 40%
- IgG1-2F8-F405S (antibody) — lower, 39%
- IgG1-2F8-F405V (antibody) — lower, 43%
- IgG1-2F8-F405W (antibody) — lower, 18%
- IgG1-2F8-L368A (antibody) — lower, 37%
- IgG1-2F8-L368D (antibody) — higher, 54%
- IgG1-2F8-L368E (antibody) — lower, 42%
- IgG1-2F8-L368G (antibody) — higher, 53%
- IgG1-2F8-L368H (antibody) — lower, 29%
- IgG1-2F8-L368N (antibody) — higher, 54%
- IgG1-2F8-L368R (antibody) — higher, 91%
- IgG1-2F8-L368S (antibody) — higher, 53%
- IgG1-2F8-L368T (antibody) — higher, 56%
- IgG1-2F8-L368V (antibody) — higher, 51%
- IgG1-2F8-L368W (antibody) — higher, 60%
- IgG1-2F8-Y407L (antibody) — higher, 49%
- IgG1-2F8-Y407Q (antibody) — lower, 44%
- IgG1-2F8-Y407W (antibody) — higher, 62%

For IgG1-2F8-L368R (antibody), the Fab-arm exchange efficiency compared to the positive control, 15° C., 200 min was 100%.

What follows are substances tested against IgG1-7D8-K409R (human) [IgG part: P01857] (assay: cell-based or functional assay).

Point of comparison: IgG1-2F8-D399F (antibody), Bispecific binding (% relative to positive control) 14%. Against it:
- IgG1-2F8-D399H (antibody) — lower, 10%
- IgG1-2F8-D399K (antibody) — higher, 34%
- IgG1-2F8-D399Q (antibody) — lower, 0%
- IgG1-2F8-D399R (antibody) — higher, 38%
- IgG1-2F8-F405I (antibody) — higher, 39%
- IgG1-2F8-F405K (antibody) — higher, 47%
- IgG1-2F8-F405S (antibody) — higher, 45%
- IgG1-2F8-F405T (antibody) — higher, 42%
- IgG1-2F8-F405V (antibody) — higher, 37%
- IgG1-2F8-F405W (antibody) — higher, 16%
- IgG1-2F8-L368A (antibody) — higher, 25%
- IgG1-2F8-L368D (antibody) — higher, 41%
- IgG1-2F8-L368E (antibody) — higher, 37%
- IgG1-2F8-L368G (antibody) — higher, 44%
- IgG1-2F8-L368H (antibody) — higher, 21%
- IgG1-2F8-L368N (antibody) — higher, 43%
- IgG1-2F8-L368R (antibody) — higher, 52%
- IgG1-2F8-L368S (antibody) — higher, 37%
- IgG1-2F8-L368T (antibody) — higher, 39%
- IgG1-2F8-L368V (antibody) — higher, 33%
- IgG1-2F8-L368W (antibody) — higher, 41%
- IgG1-2F8-Y407L (antibody) — higher, 49%
- IgG1-2F8-Y407Q (antibody) — lower, 1%
- IgG1-2F8-Y407W (antibody) — higher, 47%

The substances below were run against CH2-CH3 construct G1 (human) (assay: native MS, monomer-dimer equilibrium of CH2-CH3 fragment).

In the case of CH2-CH3 construct G1, the pKd was 8.52.

CH2-CH3 construct G1 was tested, and the fold-difference (against wild type CH2-CH3 fragment) was 1 fold.

These substances were tested against CH2-CH3 construct G1-K370T (human) in the same assay as above.

With CH2-CH3 construct G1-K370T the pKd was 7.35.

Substance CH2-CH3 construct G1-K370T has a fold-difference (against wild type CH2-CH3 fragment) of 0.07 fold.

These substances were tested against CH2-CH3 construct G1-K409R (human) in the same assay as above.

CH2-CH3 construct G1-K409R was tested, and the pKd was 6.96.

CH2-CH3 construct G1-K409R was tested, and the fold-difference (against wild type CH2-CH3 fragment) was 0.03 fold.

What follows are substances tested against CH2-CH3 construct G1-T350I (human) in the same assay as above.

Substance CH2-CH3 construct G1-T350I has a pKd of 8.15.

With CH2-CH3 construct G1-T350I the fold-difference (against wild type CH2-CH3 fragment) was 0.4 fold.

The substances below were run against CH2-CH3 construct G4 (human) in the same assay as above.

In the case of CH2-CH3 construct G4, the pKd was 7.32.

In the case of CH2-CH3 construct G4, the fold-difference (against wild type CH2-CH3 fragment) was 1 fold.

The substances below were run against CH2-CH3 construct G4-E357T (human) in the same assay as above.

For CH2-CH3 construct G4-E357T, the pKd was 4.39.

Substance CH2-CH3 construct G4-E357T has a fold-difference (against wild type CH2-CH3 fragment) of 0.0012 fold.

Each substance was assayed against CH2-CH3 construct G4-F405A (human) in the same assay as above.

With CH2-CH3 construct G4-F405A the pKd was 4.72.

CH2-CH3 construct G4-F405A gave a fold-difference (against wild type CH2-CH3 fragment) of 0.0025 fold.

Each substance was assayed against CH2-CH3 construct G4-F405L (human) in the same assay as above.

CH2-CH3 construct G4-F405L gave a pKd of 4.60.

Substance CH2-CH3 construct G4-F405L has a fold-difference (against wild type CH2-CH3 fragment) of 0.0019 fold.

The substances below were run against CH2-CH3 construct G4-K370E (human) in the same assay as above.

For CH2-CH3 construct G4-K370E, the pKd was 8.70.

Work on CH2-CH3 construct G4-K370E yielded a fold-difference (against wild type CH2-CH3 fragment) of 24 fold.

What follows are substances tested against CH2-CH3 construct G4-K370Q (human) in the same assay as above.

CH2-CH3 construct G4-K370Q gave a pKd of 7.96.

With CH2-CH3 construct G4-K370Q the fold-difference (against wild type CH2-CH3 fragment) was 4.3 fold.

The substances below were run against CH2-CH3 construct G4-L351K (human) in the same assay as above.

In the case of CH2-CH3 construct G4-L351K, the pKd was 6.13.

CH2-CH3 construct G4-L351K gave a fold-difference (against wild type CH2-CH3 fragment) of 0.06 fold.

Each substance was assayed against CH2-CH3 construct G4-R409A (human) in the same assay as above.

Substance CH2-CH3 construct G4-R409A has a pKd of 6.80.

Substance CH2-CH3 construct G4-R409A has a fold-difference (against wild type CH2-CH3 fragment) of 0.3 fold.

These substances were tested against CH2-CH3 construct G4-R409K (human) in the same assay as above.

In the case of CH2-CH3 construct G4-R409K, the pKd was 8.10.

For CH2-CH3 construct G4-R409K, the fold-difference (against wild type CH2-CH3 fragment) was 6 fold.

Each substance was assayed against CH2-CH3 construct G4-R409L (human) in the same assay as above.

CH2-CH3 construct G4-R409L gave a pKd of 7.82.

CH2-CH3 construct G4-R409L gave a fold-difference (against wild type CH2-CH3 fragment) of 3.2 fold.

What follows are substances tested against CH2-CH3 construct G4-R409M (human) in the same assay as above.

Work on CH2-CH3 construct G4-R409M yielded a pKd of 8.52.

For CH2-CH3 construct G4-R409M, the fold-difference (against wild type CH2-CH3 fragment) was 16 fold.

These substances were tested against CH2-CH3 construct G4-R409T (human) in the same assay as above.

Substance CH2-CH3 construct G4-R409T has a pKd of 6.14.

Substance CH2-CH3 construct G4-R409T has a fold-difference (against wild type CH2-CH3 fragment) of 0.07 fold.

Each substance was assayed against CH2-CH3 construct G4-R409W (human) in the same assay as above.

With CH2-CH3 construct G4-R409W the pKd was 4.47.

Work on CH2-CH3 construct G4-R409W yielded a fold-difference (against wild type CH2-CH3 fragment) of 0.0014 fold.

Each substance was assayed against CH2-CH3 construct G4-S364D (human) in the same assay as above.

CH2-CH3 construct G4-S364D gave a pKd of 7.33.

Work on CH2-CH3 construct G4-S364D yielded a fold-difference (against wild type CH2-CH3 fragment) of 1.02 fold.

What follows are substances tested against CH2-CH3 construct G1-K409R (human) (assay: native MS, monomer-dimer equilibrium of CH2-CH3 fragment, homodimer).

CH2-CH3 construct G1-K409R was tested, and the pKd was 6.96.

Each substance was assayed against recombinant extracellular domain of EGFR (UniProt P00533) (assay: sandwich ELISA: EGFR extracellular domain coated, detection with anti-idiotype 2F2 SAB1.1).

“bispecific antibody generated by 2-MEA-induced Fab-arm exchange between IgG1-2F8-F405L and IgG1-7D8-K409R (from UniProt P01857 1-330)” showed an EC50 (read off the curve) of 0.4 µg/mL.
